# Reference: patent publication US20080138837A1, “Methods and kits for detecting and measuring ADAMTS13/FXI complexes” (priority 2004, published 2008)
# Ends that are not written are not given here. * marks the point of attachment. AMC = Cc1cc(=O)oc2cc(N*)ccc12
# T1: platelet ADAMTS13
# T1 sequence: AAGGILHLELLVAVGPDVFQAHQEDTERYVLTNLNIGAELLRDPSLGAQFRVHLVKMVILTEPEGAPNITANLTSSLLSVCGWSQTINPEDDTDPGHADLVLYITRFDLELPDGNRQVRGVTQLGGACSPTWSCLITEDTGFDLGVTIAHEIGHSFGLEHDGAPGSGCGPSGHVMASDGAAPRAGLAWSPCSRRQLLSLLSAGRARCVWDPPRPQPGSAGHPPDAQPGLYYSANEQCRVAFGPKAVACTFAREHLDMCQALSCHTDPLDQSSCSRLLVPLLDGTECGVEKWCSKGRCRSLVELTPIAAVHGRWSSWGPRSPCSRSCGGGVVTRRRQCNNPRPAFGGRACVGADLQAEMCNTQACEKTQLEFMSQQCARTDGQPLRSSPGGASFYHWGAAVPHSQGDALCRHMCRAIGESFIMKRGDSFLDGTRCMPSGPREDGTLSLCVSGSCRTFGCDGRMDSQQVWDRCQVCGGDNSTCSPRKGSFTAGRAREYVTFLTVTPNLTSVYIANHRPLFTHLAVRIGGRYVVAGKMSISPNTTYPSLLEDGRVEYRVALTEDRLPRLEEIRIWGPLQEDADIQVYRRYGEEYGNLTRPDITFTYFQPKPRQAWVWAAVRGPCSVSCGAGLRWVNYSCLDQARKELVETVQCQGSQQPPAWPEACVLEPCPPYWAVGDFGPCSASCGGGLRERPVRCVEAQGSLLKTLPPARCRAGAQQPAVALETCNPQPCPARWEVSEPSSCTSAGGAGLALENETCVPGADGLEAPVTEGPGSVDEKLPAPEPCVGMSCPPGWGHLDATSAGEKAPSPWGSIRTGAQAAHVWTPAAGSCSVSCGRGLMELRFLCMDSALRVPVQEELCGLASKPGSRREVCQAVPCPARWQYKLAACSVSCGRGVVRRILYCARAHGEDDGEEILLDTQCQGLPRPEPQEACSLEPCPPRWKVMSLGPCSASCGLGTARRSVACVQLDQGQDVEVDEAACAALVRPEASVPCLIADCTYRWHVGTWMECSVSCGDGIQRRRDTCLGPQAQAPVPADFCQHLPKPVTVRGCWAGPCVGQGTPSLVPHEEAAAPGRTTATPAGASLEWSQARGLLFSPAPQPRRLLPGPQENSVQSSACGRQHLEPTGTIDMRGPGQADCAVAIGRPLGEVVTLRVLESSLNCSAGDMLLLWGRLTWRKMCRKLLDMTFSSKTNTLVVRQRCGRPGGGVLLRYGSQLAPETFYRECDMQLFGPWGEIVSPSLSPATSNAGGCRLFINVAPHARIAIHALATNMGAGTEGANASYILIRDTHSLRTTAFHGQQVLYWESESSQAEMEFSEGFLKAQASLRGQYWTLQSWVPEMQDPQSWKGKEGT
# T2: Leu-Val-Tyr-AMC
# T2 chain: LVY
# T3: NH2-Arg-Lys(DABCYL)-NLVYMVTGD(EDANS)-Arg-COOH
# T3 chain: RKNLVYMVTGDR
# T4: Suc-Leu-Leu-Val-Tyr-AMC
# T4 chain: LLVY
# Key:
# ADAMTS13 = ADAMTS13 activity in PRP using peptidyl substrates; format: biochemical, human; details: normal PRP 20 μl, 0.8 mM substrate, 37° C., 10 mM Tris-HCl pH 8.0, Ex 360 nm/Em 460 nm, FIG. 3
# Method: Blood was collected by venopuncture into collection tubes containing 0.12 M sodium citrate, an anti-coagulant. The citrated blood was centrifuged at 700 rpm for 10 minutes. The supernatant was removed and saved as the platelet rich plasma (PRP) fraction. The PRP was centrifuged at 10,000 rpm for 20 minutes. The supernatant was removed and saved as the platelet poor plasma (PPP) fraction. The pellet contained the platelets, which were washed by resuspending in 10 mM Tris-HCl pH 8.0 buffer and centrifuging at 10,000 rpm for 10 minutes. The isolated platelets were resuspended in buffer and used in experiments.
# As discussed above, Furlan et al. reported that some peptidyl-pNA moieties, such as XLY-pNA and XVY-pNA, were not substrates for ADAMTS13. We prepared LVY-pNA and tested it for its ability to be cleaved by ADAMTS13. The results shown in FIG. 2 confirm the findings of Furlan et al., i.e., LVY-pNA was not cleaved by ADAMTS13.
# In order to determine the effect of modifying the length of the peptide sequence conjugated to the AMC fluorochrome, normal PRP (20 μl) was incubated at 37° C. with a final concentration of 0.8 mM Suc-LLVY-AMC or LVY-AMC in 10 mM Tris-HCl pH 8.0 buffer in total volume of 200 μl. Fluorescence was measured using a microtiter fluorophotometric plate reader (Ex 360 nm/Em 460 nm).
# platelet ADAMTS13 [1] = assay: Enhancement of platelet ADAMTS13 activity by treatment with FXIa; format: biochemical, human; details: 0.3 ng/ml FXIa, FIG. 11
# Method: Washed normal platelets from 200 μL of PRP were resuspended in 1 ml of assay buffer. Washed platelets from 1 ml of PRP from a subject with acquired TTP were resuspended in 50 μL of assay buffer. Normal or TTP platelets (10 μl) were added to 10 mM Tris-HCl pH 8.0 assay buffer (80 μl) or assay buffer containing 0.3 ng/ml of FXIa (80 μl). LVY-AMC substrate (10 μl of 2 mM) was added and the fluorescence was monitored (Ex 360 nm/Em 440 nm) for 1500 seconds. FXIa at 0.3 ng/ml was used as a control.
# platelet ADAMTS13 [2] = system: T1, platelet ADAMTS13
# Leu-Val-Tyr-AMC = biological target: T2, Leu-Val-Tyr-AMC
# [3] = biological target: T3, NH2-Arg-Lys(DABCYL)-NLVYMVTGD(EDANS)-Arg …
# Suc-Leu-Leu-Val-Tyr-AMC = biological target: T4, Suc-Leu-Leu-Val-Tyr-AMC
molecule,measurement,setting,value
"Leu-Val-Tyr-AMC (Leu-Val-Tyr-{AMC}) [LVY-AMC, fluorogenic peptidyl substrate from Bachem Bioscience Inc; also made by QPR]",cleavage of peptidyl-AMC substrate by ADAMTS13 in PRP,ADAMTS13,cleaved
"FXIa: activated Factor XI, plasma serine protease",increase of ADAMTS13 activity towards LVY-AMC substrate upon treatment of platelets with FXIa,"platelet ADAMTS13 [1]; normal platelets, 1500 seconds",approximately 8 fold
same,enhancement of activity of platelets by treatment with FXIa,"platelet ADAMTS13 [1]; platelets from PRP of an acquired TTP patient, compared with normal individual",much lesser extent
activated Factor XI,ADAMTS13 activity towards LVY-AMC substrate,platelet ADAMTS13 [2],ADAMTS13 activity was significantly increased (by approximately 8-fold) towards LVY-AMC substrate upon treatment of platelets with FXIa
platelet ADAMTS13 (protein) AAGGILHLELLVAVGPDVFQAHQEDTERYVLTNLNIGAELLRDPSLGAQFRVHLVKMVILTEPEGAPNITANLTSSLLSVCGWSQTINPEDDTDPGHADLVLYITRFDLELPDGNRQVRGVTQLGGACSPTWSCLITEDTGFDLGVTIAHEIGHSFGLEHDGAPGSGCGPSGHVMASDGAAPRAGLAWSPCSRRQLLSLLSAGRARCVWDPPRPQPGSAGHPPDAQPGLYYSANEQCRVAFGPKAVACTFAREHLDMCQALSCHTDPLDQSSCSRLLVPLLDGTECGVEKWCSKGRCRSLVELTPIAAVHGRWSSWGPRSPCSRSCGGGVVTRRRQCNNPRPAFGGRACVGADLQAEMCNTQACEKTQLEFMSQQCARTDGQPLRSSPGGASFYHWGAAVPHSQGDALCRHMCRAIGESFIMKRGDSFLDGTRCMPSGPREDGTLSLCVSGSCRTFGCDGRMDSQQVWDRCQVCGGDNSTCSPRKGSFTAGRAREYVTFLTVTPNLTSVYIANHRPLFTHLAVRIGGRYVVAGKMSISPNTTYPSLLEDGRVEYRVALTEDRLPRLEEIRIWGPLQEDADIQVYRRYGEEYGNLTRPDITFTYFQPKPRQAWVWAAVRGPCSVSCGAGLRWVNYSCLDQARKELVETVQCQGSQQPPAWPEACVLEPCPPYWAVGDFGPCSASCGGGLRERPVRCVEAQGSLLKTLPPARCRAGAQQPAVALETCNPQPCPARWEVSEPSSCTSAGGAGLALENETCVPGADGLEAPVTEGPGSVDEKLPAPEPCVGMSCPPGWGHLDATSAGEKAPSPWGSIRTGAQAAHVWTPAAGSCSVSCGRGLMELRFLCMDSALRVPVQEELCGLASKPGSRREVCQAVPCPARWQYKLAACSVSCGRGVVRRILYCARAHGEDDGEEILLDTQCQGLPRPEPQEACSLEPCPPRWKVMSLGPCSASCGLGTARRSVACVQLDQGQDVEVDEAACAALVRPEASVPCLIADCTYRWHVGTWMECSVSCGDGIQRRRDTCLGPQAQAPVPADFCQHLPKPVTVRGCWAGPCVGQGTPSLVPHEEAAAPGRTTATPAGASLEWSQARGLLFSPAPQPRRLLPGPQENSVQSSACGRQHLEPTGTIDMRGPGQADCAVAIGRPLGEVVTLRVLESSLNCSAGDMLLLWGRLTWRKMCRKLLDMTFSSKTNTLVVRQRCGRPGGGVLLRYGSQLAPETFYRECDMQLFGPWGEIVSPSLSPATSNAGGCRLFINVAPHARIAIHALATNMGAGTEGANASYILIRDTHSLRTTAFHGQQVLYWESESSQAEMEFSEGFLKAQASLRGQYWTLQSWVPEMQDPQSWKGKEGT,fluorescence over time (LVY-AMC cleavage),Leu-Val-Tyr-AMC,the activity in platelets was due to ADAMTS13 cleaving the LVY-AMC substrate
same,fluorescence over time (FRET substrate cleavage),[3],incubation of platelets with NH2-Arg-Lys(DABCYL)-NLVYMVTGD(EDANS)-Arg-COOH results in increased fluorescence over time
recombinant ADAMTS13 (protein) AAGGILHLELLVAVGPDVFQAHQEDTERYVLTNLNIGAELLRDPSLGAQFRVHLVKMVILTEPEGAPNITANLTSSLLSVCGWSQTINPEDDTDPGHADLVLYITRFDLELPDGNRQVRGVTQLGGACSPTWSCLITEDTGFDLGVTIAHEIGHSFGLEHDGAPGSGCGPSGHVMASDGAAPRAGLAWSPCSRRQLLSLLSAGRARCVWDPPRPQPGSAGHPPDAQPGLYYSANEQCRVAFGPKAVACTFAREHLDMCQALSCHTDPLDQSSCSRLLVPLLDGTECGVEKWCSKGRCRSLVELTPIAAVHGRWSSWGPRSPCSRSCGGGVVTRRRQCNNPRPAFGGRACVGADLQAEMCNTQACEKTQLEFMSQQCARTDGQPLRSSPGGASFYHWGAAVPHSQGDALCRHMCRAIGESFIMKRGDSFLDGTRCMPSGPREDGTLSLCVSGSCRTFGCDGRMDSQQVWDRCQVCGGDNSTCSPRKGSFTAGRAREYVTFLTVTPNLTSVYIANHRPLFTHLAVRIGGRYVVAGKMSISPNTTYPSLLEDGRVEYRVALTEDRLPRLEEIRIWGPLQEDADIQVYRRYGEEYGNLTRPDITFTYFQPKPRQAWVWAAVRGPCSVSCGAGLRWVNYSCLDQARKELVETVQCQGSQQPPAWPEACVLEPCPPYWAVGDFGPCSASCGGGLRERPVRCVEAQGSLLKTLPPARCRAGAQQPAVALETCNPQPCPARWEVSEPSSCTSAGGAGLALENETCVPGADGLEAPVTEGPGSVDEKLPAPEPCVGMSCPPGWGHLDATSAGEKAPSPWGSIRTGAQAAHVWTPAAGSCSVSCGRGLMELRFLCMDSALRVPVQEELCGLASKPGSRREVCQAVPCPARWQYKLAACSVSCGRGVVRRILYCARAHGEDDGEEILLDTQCQGLPRPEPQEACSLEPCPPRWKVMSLGPCSASCGLGTARRSVACVQLDQGQDVEVDEAACAALVRPEASVPCLIADCTYRWHVGTWMECSVSCGDGIQRRRDTCLGPQAQAPVPADFCQHLPKPVTVRGCWAGPCVGQGTPSLVPHEEAAAPGRTTATPAGASLEWSQARGLLFSPAPQPRRLLPGPQENSVQSSACGRQHLEPTGTIDMRGPGQADCAVAIGRPLGEVVTLRVLESSLNCSAGDMLLLWGRLTWRKMCRKLLDMTFSSKTNTLVVRQRCGRPGGGVLLRYGSQLAPETFYRECDMQLFGPWGEIVSPSLSPATSNAGGCRLFINVAPHARIAIHALATNMGAGTEGANASYILIRDTHSLRTTAFHGQQVLYWESESSQAEMEFSEGFLKAQASLRGQYWTLQSWVPEMQDPQSWKGKEGT,fluorescence signal (Suc-LLVY-AMC cleavage),Suc-Leu-Leu-Val-Tyr-AMC,a greater fluorescence signal was produced by the supernatant from transfected cells verses supernatant from mock transfected cells
